Assay [1] deals with histone H3–H4 dimer (bovine | human) (UniProt P68432). Briefly: cross-linking; combinations of H3, H4, Asf1 and TLK1B in equivalent amounts, no ATP, 5 min at room temperature in 50 mM phosphate buffer pH 7.2; 3 mM formaldehyde 5 min on ice, stopped with 50 mM glycine; SDS-PAGE, blots for H3, H4, Asf1 and TLK1B.
Assay [2] concerns the target T1, recombinant human TLK1B (GST-TLK1B) (human, UniProt Q9UKI8-3 1-549).
T1 construct: Named GST-TLK1B in the pull-downs and only TLK1B in the cross-linking reactions; also called Tousled kinase TLK1B; source: recombinant, prepared as described previously [10]
T1 sequence (looked up): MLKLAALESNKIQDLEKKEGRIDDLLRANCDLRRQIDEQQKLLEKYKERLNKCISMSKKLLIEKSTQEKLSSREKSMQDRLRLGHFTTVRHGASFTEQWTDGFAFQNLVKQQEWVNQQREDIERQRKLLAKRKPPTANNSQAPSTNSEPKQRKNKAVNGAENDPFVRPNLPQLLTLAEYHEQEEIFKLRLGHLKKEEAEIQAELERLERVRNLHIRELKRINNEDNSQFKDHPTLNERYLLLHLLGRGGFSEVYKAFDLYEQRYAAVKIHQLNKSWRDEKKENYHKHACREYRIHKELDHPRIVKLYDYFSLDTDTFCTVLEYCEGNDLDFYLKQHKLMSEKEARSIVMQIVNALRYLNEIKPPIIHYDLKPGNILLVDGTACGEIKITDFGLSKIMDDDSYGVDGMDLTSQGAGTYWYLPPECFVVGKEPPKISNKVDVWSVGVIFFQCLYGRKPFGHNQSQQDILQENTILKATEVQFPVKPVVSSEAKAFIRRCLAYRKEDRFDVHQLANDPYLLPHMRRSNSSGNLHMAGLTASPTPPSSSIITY
Briefly: pull-down; GST-TLK1B (5 ug with varying amounts of Asf1, or 1 ug each with and without 10 or 100 uM ATP and 1 mM MgCl2), 10 min at room temperature, adsorbed on GSH-Sepharose; bound and unbound fractions on 10% SDS-PAGE stained with Coomassie blue. The following applies: both partners purified.

B1: recombinant human Asf1B (natural protein, UniProt Q9NVP2 1-202, looked up)
chain: MAKVSVLNVAVLENPSPFHSPFRFEISFECSEALADDLEWKIIYVGSAESEEFDQILDSVLVGPVPAGRHMFVFQADAPNPSLIPETDAVGVTVVLITCTYHGQEFIRVGYYVNNEYLNPELRENPPMKPDFSQLQRNILASNPRVTRFHINWDNNMDRLEAIETQDPSLGCGLPLNCTPIKGLGLPGCIPGLLPENSMDCI
notes: Asf1B, histone H3-H4 chaperone, human, recombinant; source: recombinant, prepared as described previously [10]
Turning to B1, the percent inhibition of H3–H4 tetramer formation in assay [1] was found to be 57%. Moreover, the stoichiometry N – broadly, a count of units in the complex or per binding partner – in assay [2] worked out at 1.

These data come from PMC2713256, “Tousled kinase TLK1B counteracts the effect of Asf1 in inhibition of histone H3–H4 tetramer formation” (BMC Research Notes, 2009).
